This note sets out measurements from doi:10.1101/2021.11.02.466875.

What all share (assay): BLI
Background: In BLI a coated tip is dipped into the sample, and binding shifts an interference pattern.

The target of test [1] is RapC (Bacillus velezensis SQR9).
The target is the same in test [2]. This is another data set of the same source.
Test [3] shares this target. This is another data set of the same source.
Test [4] has the same target. This is another data set of the same source.

Read-outs that look alike come from different tables or passages of the source.

By Kd is commonly meant the constant that tells how readily two partners part at equilibrium. Higher therefore signals weaker binding. As to ComA (natural protein), the Kd in test [1] is 8.69 nM; in test [2], 13.5 nM; in test [3], 26.8 nM; in test [4] it was 5.49 nM.
